Assay results reported in patent US20100310561A1, “NATRIURETIC FUSION PROTEINS” (BOEHRINGER INGELHEIM INTERNATIONAL GMBH, priority 2007, published 2010).

B1: ANPXY-L4-Fc2AB (protein)
chain: SLRRSSCFGGRMDRIGAQSGLGCNSFRYGGSGGSGGSGGCPPCPAPPVAGPSVFLFPPKPKDTLMISRTPEVTCVVVDVSHEDPEVQFNWYVDGVEVHNAKTKPREEQFNSTFRVVSVLTVVHQDWLNGKEYKCKVSNKGLPAPIEKTISKTKGQPREPQVYTLPPSREEMTKNQVSLTCLVKGFYPSDIAVEWESNGQPENNYKTTPPMLDSDGSFFLYSKLTVDKSRWQQGNVFSCSVMHEALHNHYTQKSLSLSPGK
modifications: Synthesized ANPxy-L4-Fc2ab (protein)
B2: ANPXY-L6-Fc2AB (protein)
chain: SLRRSSCFGGRMDRIGAQSGLGCNSFRYGGSGGSGGSGGSGGSGGSGGCPPCPAPPVAGPSVFLFPPKPKDTLMISRTPEVTCVVVDVSHEDPEVQFNWYVDGVEVHNAKTKPREEQFNSTFRVVSVLTVVHQDWLNGKEYKCKVSNKGLPAPIEKTISKTKGQPREPQVYTLPPSREEMTKNQVSLTCLVKGFYPSDIAVEWESNGQPENNYKTTPPMLDSDGSFFLYSKLTVDKSRWQQGNVFSCSVMHEALHNHYTQKSLSLSPGK
modifications: Synthesized ANPxy-L6-Fc2ab

Assay: Single-dose rat PK study of recombinant ANP-Fc fusions, i.v. or s.c.
Format: in vivo
Conditions: 1 mg/kg, Sprague Dawley rats
Experimental: The pharamacokinetics of the recombinant ANP-Fc fusion candidates were assessed by running a single-dose rat PK study. Single bolus injections of ANP-Fc fusions at 1 mg/kg dose were given to Sprague Dawley rats via i.v. or s.c. injection. Vehicle control PBS injections were given to a control group of animals. […] Animals were sampled for 1 week with a contingency group going up to 3 weeks. After sampling the animals were quarantined and the plasma samples with EDTA and Aprotinin are assayed in a sandwich ELISA where the ANP is captured with a monoclonal antibody and detected with an anti-human Fc antibody. The ELISA has a sensitivity of 1 ng/mL and may be used to detect ANP-Fc fusion proteins in rat plasma. This rat PK data permits the comparison of the in vivo half-life of the ANP-Fc fusion proteins to that of the native ligand, hANP28.

Molecule	half-life (T½) (intravenous bolus)	mean resonance time (MRT) (intravenous bolus)	volume of distribution (Vss) (intravenous bolus)	area under the curve (AUC) (subcutaneous)	half-life (T½) (subcutaneous)	maximum serum concentration obtained (Cmax) (subcutaneous)	percent bioavailability (% F) (subcutaneous)
B1	16.8 h	3.91 h	0.61 L/kg	2671 ng·h/mL	23.1 h	53.5 ng/mL	20.6%
B2	11.7 h	3.08 h	0.76 L/kg	2202 ng·h/mL	20.6 h	44 ng/mL	26.3%
